# Publication PMC4270772 (PLoS Pathogens, 2014)
# B1: 3E3 with the three germ line CDR2 residues re-inserted (VHH)
# VHH: EVQLVESGGGLVQPGGSLRLSCAASQFTLESYAIGWFRQAPGKDSEGVACISSSDGSTYYADSVKGRFTISRDNAKNTVYLQMESLKPEDTAVYHCATSGAGSYCTLRAFGSWGQGTQVTVSS
# Molecular target: T1, recombinant trimeric gp140 from HIV-1 92UG037 (clade A) (HIV-1 92UG037 (clade A), UniProt Q5VFI3, strain)
# T1 construct: source: provided by S. Jeffs (Imperial College London)
# Assay: ELISA
# Conditions: both partners purified
binder,measurement,value
B1,binding result,no binding
